Values joined by “and” are separate entries in the source; they are usually repeats but may differ in a detail not shown here. Equal values may be shown once. Read-outs that look alike come from different tables or passages of the source.
Legend:
HA1 = test: Binding to HA1; parameters: species or system influenza A
[1] = molecular target: H5N1 A/VN/1204 (H5 Vietnam/1203/2004) HA; format: binding, influenza A
H9N2 Mallard/MN/98 = format: cell-based, influenza A
H5 HA = format: binding, influenza A; settings: read-out: affinity
H5N1 A/VN/1204 = format: cell-based, influenza A
[2] = test system: virus 10 times the LD50 delivered intranasally; test: Prophylaxis in mice, potency (EC50); format: in vivo; settings: single intraperitoneal dose at Day -1, virus at Day 0
[3] = test system: H5N1: A/Vietnam/1203/04/HPAI; parameters: species or system mice; settings: mouse, in vivo, ip, 10 mg/kg
[4] = molecular target: HA of clades spanning Group 1; test: Standard FortéBio assay (FIG. 3A); format: binding, influenza A; settings: Group 1, FIG. 3A
Philippines 2/82 = test system: Philippines 2/82; parameters: species or system mice; settings: mouse, in vivo
H7 HA = format: binding, influenza A; settings: read-out: affinity
H9N2 = format: cell-based, influenza A
H1N1: A/CA/04/09 = test system: H1N1: A/CA/04/09; parameters: species or system mice; settings: mouse, in vivo, ip, 10 mg/kg
H5N1 [5] = format: cell-based, influenza A
H9 HA = format: binding, influenza A; settings: read-out: affinity
H1 HA = format: binding, influenza A; settings: read-out: affinity
H1N1 A/CA/07/09 = test: MDCK monolayer microneutralization assay; format: cell-based, influenza A
H2N2 A/Mallard/MN/2008 = format: cell-based, influenza A
[6] = molecular target: H1N1 A/CA/07/09 (H1 Calif/07/09) HA; format: binding, influenza A
[7] = test system: H1N1 Influenza A/Ca/04/09; test: Comparison to treatment with Tamiflu in infected mice; format: in vivo
H1N1 [8] = format: cell-based, influenza A
H5N1 [9] = test system: H5N1; parameters: species or system mice; settings: mouse, in vivo
H7N3 = format: cell-based, influenza A
A/Ca/04/09 (H1N1) = test: In vivo efficacy, treatment at Day 2; parameters: species or system mice; settings: IP at Day 2, 10 mg/kg (mixture 10 mg/kg each), FIGS. 6A, 6C
H1N1 [10] = test system: H1N1; parameters: species or system mice; settings: mouse, in vivo
[11] = molecular target: HA of clades spanning Group 2; test: Standard FortéBio assay (FIG. 3B); format: binding, influenza A; settings: Group 2, FIG. 3B
[12] = test system: H3N2 A/Hong Kong/8/68 (A/HongKong/68); test: MDCK monolayer microneutralization assay; format: cell-based, influenza A
H3N2 A/Perth/16/2009 HA = format: binding, influenza A
[13] = test system: H3 A/Phillipines/2/82 x-79; test: MDCK monolayer microneutralization assay; format: cell-based, influenza A
H3N2: A/Perth/16/09 = test system: H3N2: A/Perth/16/09; parameters: species or system mice; settings: mouse, in vivo, ip, 10 mg/kg
H4 (H4N4) A/Bufflehead = format: cell-based, influenza A
[14] = molecular target: H3N2 A/New York/55/2004 HA; test: Affinity by FortéBio; format: binding, influenza A
H3 A/Udorn/307/1976 = test: MDCK monolayer microneutralization assay; format: cell-based, influenza A
H3N2 A/Hong Kong/8/68 HA = format: binding, influenza A
[15] = molecular target: H7N3 A/Canada/rv444/04 HA; format: binding, influenza A
[16] = test system: H10 (H10N7) A/Northern Shoveler; format: cell-based, influenza A
H3N2 A/Wisconsin/67/2005 = test: MDCK monolayer microneutralization assay; format: cell-based, influenza A
[17] = test system: H7N7 A/Netherlands/219/03; format: cell-based, influenza A
[18] = test system: H7N3: A/Red Knot/NJ/1523470/06; parameters: species or system mice; settings: mouse, in vivo, ip, 10 mg/kg
H7 A/Sanderling/A106-125 = test: MDCK monolayer microneutralization assay; format: cell-based, influenza A; settings: H7 A/Sanderling/A106-125, bird virus
H1 = test: Binding by MAB579 in vitro (FIG. 2); parameters: species or system influenza A; settings: H1, FIG. 2
[19] = test system: H7 A/Redknot/NJ/1523470/06; test: MDCK monolayer microneutralization assay; format: cell-based, influenza A; settings: H7 A/Redknot/NJ/1523470/06, bird virus
H3 A/SW/MN/02719 = format: cell-based, influenza A
H7N3 A/Canada/rv444/04 = format: cell-based, influenza A
H3 = test: Binding by MAB579 in vitro (FIG. 2); parameters: species or system influenza A; settings: H3, FIG. 2
[20] = molecular target: H7N7 A/Netherlands/219/03 HA; format: binding, influenza A
H3N2 A/Perth/16/2009 = test: MDCK monolayer microneutralization assay; format: cell-based, influenza A
H7 = test: Binding by MAB579 in vitro (FIG. 2); parameters: species or system influenza A; settings: H7, FIG. 2
[21] = test system: H7 A/Ruddy Turnstone/A106-892; test: MDCK monolayer microneutralization assay; format: cell-based, influenza A; settings: H7 A/Ruddy Turnstone/A106-892, bird virus
H3N2 A/New York/55/2004 = test: MDCK monolayer microneutralization assay; format: cell-based, influenza A

B1: MAB53 (antibody, V domains shown)
VH: QVQLVQSGAEVRKPGSSVKVSCKVSGGIIRKYAINWVRQAPGQGLEWMGGIIAIFNTANYAQKFQGRVTITADESTSTVYMELSSLRSEDTALYYCARGMNYYSDYFDYWGQGSLVTVSP
VL: EIVLTQSPGTLSLSPGERATLSCRASQSVRSNNLAWYQHKPGQAPRLLIFGASSRATGIPDRFSGSGSGTDFTLTISRLEPEDFAVYYCQQYGSSPALTFGGGTKVEIK
modifications: CHAIN (1)...(120) MAB53 heavy chain sequence of variable domain; DOMAIN (31)...(35) CDR1; DOMAIN (50)...(66) CDR2; DOMAIN (99)...(110) CDR3; CHAIN (1)...(109) MAB53 light chain sequence; DOMAIN (24)...(35) CDR1; DOMAIN (51)...(57) CDR2; DOMAIN (90)...(98) CDR3
- binding to HA1 (HA1): does not bind HA1
- Kd ([1]; read-out: Affinity by FortéBio): 0.5 nM
- Kd ([1]; read-out: KD): 0.5 nM
- EC50 (H9N2 Mallard/MN/98): 0.10 µg/mL
- Kd (H5 HA): 6 nM
- EC50 (H5N1 A/VN/1204): 0.10 µg/mL
- Potency Difference (H5N1 A/VN/1204): 40x
- EC50 (prophylaxis potency) [2]: 0.4 mg/kg
- therapeutic effectiveness (survival) [3]: fully effective
- affinity across clades (in words) [4]: sub-nM affinity
- protection / survival (Philippines 2/82): resulted in death after 10 days
- Kd (H7 HA): 0.07 nM
- low doses that neutralized infection (H9N2): 1 to 5 µg/mL
- therapeutic effectiveness (survival) (H1N1: A/CA/04/09): fully effective
- low doses that neutralized infection (H5N1 [5]): 1 to 5 µg/mL
- Kd (H9 HA): 0.03 nM
- Kd (H1 HA): 0.06 nM
- Potency Difference (H1N1 A/CA/07/09; MAB53 vs CR6261 EC50, H1N1 A/CA/07/09): 30x
- EC50 (H1N1 A/CA/07/09; in vitro neutralization, H1N1 A/CA/07/09): 0.14 µg/mL
- EC50 (H2N2 A/Mallard/MN/2008): 1.20 µg/mL
- Kd [6]: 0.1 nM
- survival ([7]; 10 mice per group, treatment from Day +1, to Day 14): eight of the ten mice survived past Day 8 to Day 14
- weight relative to original weight (in words) ([7]; by Day 14): the original weight was exceeded
- day at which decline in weight was reversed ([7]; treatment from Day +1): 4 days
- low doses that neutralized infection (H1N1 [8]): 1 to 5 µg/mL
- survival (H5N1 [9]): 80% and 60% and 50%
- low doses that neutralized infection (H7N3): 1 to 5 µg/mL
- protection / survival (A/Ca/04/09 (H1N1)): protective
- survival (H1N1 [10]): 90% and 50%

B2: MAB579 (antibody, V domains shown)
VH: QVQLVQSGAEVKKPGASVKVSCKTSGYTFTAYTIHWVRQAPGQRLEWMGWINAGNGHTKYSQRFKGRVTITRDTSARTTYMELRSLTSEDTALYFCARGPETYYYDKTNWLNSHPDEYFQHWGHGTQVTVSS
VL: DIQMTQSPSTLSASVGDRVTITCRASQTINNYLAWYQQKPGKAPKLLIYKASSLESGVPSRFSGSGSGTEFTLTISSLQPDDFATYYCQEYNNDSPLTFGGGTKVEIK
modifications: CHAIN (1)...(132) MAB579 heavy chain sequence of variable domain; DOMAIN (31)...(35) CDR1; DOMAIN (50)...(67) CDR2; DOMAIN (99)...(121) CDR3; CHAIN (1)...(108) MAB579 light chain sequence of variable domain; DOMAIN (24)...(34) CDR1; DOMAIN (50)...(57) CDR2; DOMAIN (89)...(98) CDR3
- affinity across clades (in words) [11]: sub-nM affinity
- IC50 ([12]; H3 A/HongKong/68): 2.8 µg/mL
- Potency Difference ([12]; MAB579 vs CR8020 EC50, H3N2 A/Hong Kong/8/68): 3x
- EC50 ([12]; in vitro neutralization, H3N2 A/Hong Kong/8/68): 2.0 µg/mL
- Kd (H3N2 A/Perth/16/2009 HA; read-out: Affinity by FortéBio): 0.7 nM
- Kd (H3N2 A/Perth/16/2009 HA; read-out: KD): 0.8 nM
- IC50 [13]: 0.9 µg/mL
- therapeutic effectiveness (survival) (H3N2: A/Perth/16/09): essentially fully effective
- EC50 (H4 (H4N4) A/Bufflehead): 15.0 µg/mL
- IC50 (H4 (H4N4) A/Bufflehead): 15.5 µg/mL
- Potency Difference (H4 (H4N4) A/Bufflehead): 3x
- Kd [14]: 0.2 nM
- IC50 (H3 A/Udorn/307/1976): 1.9 µg/mL
- Kd (H3N2 A/Hong Kong/8/68 HA): 0.2 nM
- Kd [15]: 0.6 nM
- EC50 [16]: 0.8 µg/mL
- IC50 [16]: 0.8 µg/mL
- IC50 (H3N2 A/Wisconsin/67/2005; H3 A/Wisconsin/67/2005): 1.0 µg/mL
- Potency Difference (H3N2 A/Wisconsin/67/2005; MAB579 vs CR8020 EC50, H3N2 A/Wisconsin/67/2005): 3x
- EC50 (H3N2 A/Wisconsin/67/2005; in vitro neutralization, H3N2 A/Wisconsin/67/2005): 1.0 µg/mL
- protection / survival (Philippines 2/82): effective
- EC50 [17]: 0.7 µg/mL
- IC50 [17]: 0.6 µg/mL
- Potency Difference [17]: 20x
- therapeutic effectiveness (survival) [18]: essentially fully effective
- IC50 (H7 A/Sanderling/A106-125): >20 µg/mL
- binding affinity (in words) (H1): negligible binding affinity
- IC50 [19]: >20 µg/mL
- IC50 (H3 A/SW/MN/02719): 3.9 µg/mL
- EC50 (H7N3 A/Canada/rv444/04): 0.5 µg/mL
- IC50 (H7N3 A/Canada/rv444/04): 1.6 µg/mL
- binding affinity (in words) (H3): tightly bound
- Kd ([20]; read-out: Affinity by FortéBio): 0.4 nM
- Kd ([20]; read-out: KD): 0.4 nM
- IC50 (H3N2 A/Perth/16/2009; H3 A/Perth/16/2009): 0.2 µg/mL
- Potency Difference (H3N2 A/Perth/16/2009; MAB579 vs CR8020 EC50, H3N2 A/Perth/16/2009): 40x
- EC50 (H3N2 A/Perth/16/2009; in vitro neutralization, H3N2 A/Perth/16/2009): 0.05 µg/mL
- binding affinity (in words) (H7): tightly bound
- IC50 [21]: >20 µg/mL
- IC50 (H3N2 A/New York/55/2004; H3 A/New York/55/2004*): 1.1 µg/mL
- Potency Difference (H3N2 A/New York/55/2004; MAB579 vs CR8020 EC50, H3N2 A/New York/55/2004): 5x
- EC50 (H3N2 A/New York/55/2004; in vitro neutralization, H3N2 A/New York/55/2004): 2.0 µg/mL
- protection / survival (A/Ca/04/09 (H1N1)): no survivors after 10 days

Source: US10654915B2, “Antibodies useful in passive influenza immunization” (priority 2011, dated 2020)
